Reference: US20070003556A1 (published 2007)

Assays:
CD22 [1] = target: T1, CD22 (UniProt P20273 20-847, limits assumed); test: flow cytometry on Raji cells, diabody at 20 ug/mL, detected with anti-Flag M2 antibody and FITC-anti-mouse IgG
T1 construct: whole, on cells; The assays used B-lymphoma cell lines Raji and Daudi, 'which are known to strongly express CD22'; also called CD22 on Raji cells; CD22 on Daudi cells
T1 sequence (looked up): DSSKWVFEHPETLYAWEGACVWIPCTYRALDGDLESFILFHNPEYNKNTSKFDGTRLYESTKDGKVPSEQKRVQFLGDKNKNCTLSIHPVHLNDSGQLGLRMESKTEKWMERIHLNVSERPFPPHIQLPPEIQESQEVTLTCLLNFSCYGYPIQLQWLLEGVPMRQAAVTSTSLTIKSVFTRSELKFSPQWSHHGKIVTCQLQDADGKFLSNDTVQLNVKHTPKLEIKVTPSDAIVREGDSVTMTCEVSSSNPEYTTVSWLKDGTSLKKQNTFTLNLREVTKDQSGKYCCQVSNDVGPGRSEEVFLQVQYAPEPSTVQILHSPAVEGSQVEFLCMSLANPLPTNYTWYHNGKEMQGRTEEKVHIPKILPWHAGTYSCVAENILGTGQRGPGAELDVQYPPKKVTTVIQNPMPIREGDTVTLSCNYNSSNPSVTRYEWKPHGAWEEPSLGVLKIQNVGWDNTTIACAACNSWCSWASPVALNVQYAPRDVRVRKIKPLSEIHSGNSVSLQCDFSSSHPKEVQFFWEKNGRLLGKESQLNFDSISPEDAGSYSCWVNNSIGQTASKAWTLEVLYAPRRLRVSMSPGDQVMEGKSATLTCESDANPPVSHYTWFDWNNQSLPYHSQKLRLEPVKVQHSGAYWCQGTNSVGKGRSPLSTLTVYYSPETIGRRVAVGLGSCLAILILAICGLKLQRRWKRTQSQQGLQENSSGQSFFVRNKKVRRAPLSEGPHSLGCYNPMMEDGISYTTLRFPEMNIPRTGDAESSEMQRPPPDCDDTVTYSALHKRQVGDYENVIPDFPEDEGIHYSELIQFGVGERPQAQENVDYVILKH
Procedure: (§1) Purified LL2 diabody and RFB4 diabody were added to cells of the B-lymphoma cell line, Raji, in PBS containing 2% FCS and 0.02% NaN₃ such that the final concentrations were 20 μg/mL and 8 μg/mL, respectively. After reacting on ice for one hour, anti-Flag M2 antibody was added to the mixture, and then reacted on ice for another one hour. The cells were washed and reacted with FITC-anti-mouse IgG on ice for 30 minutes. Diabody binding to the cell surface was measured by flow cytometry (EPICS ELITE, COULTER).

CD22 [2] = target: T1, CD22; test: flow cytometry on Raji cells, diabody at 8 ug/mL, detected with anti-Flag M2 antibody and FITC-anti-mouse IgG
Procedure: as §1

| Binder | binding result (CD22 [1]) | binding result (CD22 [2]) |
| --- | --- | --- |
| LL2 diabody (other, Diabody: a non-covalent dimer of two identical VH-(5-mer linker)-VL-Flag fragments; Expressed in DG44 cells and purified on anti-Flag M2 agarose; also called CD22 diabody; LL2 DB) QVQLQESGAELSKPGASVKMSCKASGYTFTSYWLHWIKQRPGQGLEWIGYINPRNDYTEYNQNFKDKATLTADKSSSTAYMQLSSLTSEDSAVYYCARRDITTFYWGQGTTLTVSSGGGGSDIQLTQSPSSLAVSAGENVTMSCKSSQSVLYSANHKNYLAWYQQKPGQSPKLLIYWASTRESGVPDRFTGSGSGTDFTLTISRVQVEDLAIYYCHQYLSSWTFGGGTKLEIKDYKDDDDK | binds |  |
| RFB4 diabody (other, Diabody: a non-covalent dimer of two identical VH-(5-mer linker)-VL-Flag fragments; Transiently expressed in COS7 cells and purified on anti-Flag M2 agarose; also called CD22 diabody; RFB4 DB) EVQLVESGGGLVKPGGSLKLSCAASGFAFSIYDMSWVRQTPEKRLEWVAYISSGGGTTYYPDTVKGRFTISRDNAKNTLYLQMSSLKSEDTAMYYCARHSGYGSSYGVLFAYWGQGTLVTVSAGGGGSDIQMTQTTSSLSASLGDRVTISCRASQDISNYLNWYQQKPDGTVKLLIYYTSILHSGVPSKFSGSGSGTDYSLTISNLEQEDFATYFCQQGNTLPWTFGGGTKLEIKDYKDDDDK |  | binds |
